# B1: U4/U6 small nuclear ribonucleoprotein Prp31 (Homo sapiens), Q8WWY3 (parent)
# chain: MSLADELLADLEEAAEEEEGGSYGEEEEEPAIEDVQEETQLDLSGDSVKTIAKLWDSKMFAEIMMKIEEYISKQAKASEVMGPVEAAPEYRVIVDANNLTVEIENELNIIHKFIRDKYSKRFPELESLVPNALDYIRTVKELGNSLDKCKNNENLQQILTNATIMVVSVTASTTQGQQLSEEELERLEEACDMALELNASKHRIYEYVESRMSFIAPNLSIIIGASTAAKIMGVAGGLTNLSKMPACNIMLLGAQRKTLSGFSSTSVLPHTGYIYHSDIVQSLPPDLRRKAARLVAAKCTLAARVDSFHESTEGKVGYELKDEIERKFDKWQEPPPVKQVKPLPAPLDGQRKKRGGRRYRKMKERLGLTEIRKQANRMSFGEIEEDAYQEDLGFSLGHLGKSGSGRVRQTQVNEATKARISKTLQRTLQKQSVVYGGKSTIRDRSSGTASSVAFTPLQGLEIVNPQAAEKKVAEANQKYFSSMAEFLKVKGEKSGLMST
# partner: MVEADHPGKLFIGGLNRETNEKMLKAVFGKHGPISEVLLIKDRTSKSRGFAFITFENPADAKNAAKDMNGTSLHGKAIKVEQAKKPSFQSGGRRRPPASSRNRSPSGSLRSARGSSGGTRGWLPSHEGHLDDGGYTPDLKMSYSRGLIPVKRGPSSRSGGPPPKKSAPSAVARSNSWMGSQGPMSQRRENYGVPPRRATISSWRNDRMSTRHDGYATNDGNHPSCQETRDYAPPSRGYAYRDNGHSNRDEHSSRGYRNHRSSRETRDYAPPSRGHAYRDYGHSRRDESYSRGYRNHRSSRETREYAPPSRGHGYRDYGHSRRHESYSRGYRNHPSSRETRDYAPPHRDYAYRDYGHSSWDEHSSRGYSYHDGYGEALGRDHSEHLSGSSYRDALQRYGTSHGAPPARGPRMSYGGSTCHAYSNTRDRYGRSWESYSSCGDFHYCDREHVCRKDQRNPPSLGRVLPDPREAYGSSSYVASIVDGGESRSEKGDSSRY
# B2: Beta-crystallin A4 (Homo sapiens), P53673 (parent)
# chain: MTLQCTKSAGPWKMVVWDEDGFQGRRHEFTAECPSVLELGFETVRSLKVLSGAWVGFEHAGFQGQQYILERGEYPSWDAWGGNTAYPAERLTSFRPAACANHRDSRLTIFEQENFLGKKGELSDDYPSLQAMGWEGNEVGSFHVHSGAWVCSQFPGYRGFQYVLECDHHSGDYKHFREWGSHAPTFQVQSIRRIQQ
# partner: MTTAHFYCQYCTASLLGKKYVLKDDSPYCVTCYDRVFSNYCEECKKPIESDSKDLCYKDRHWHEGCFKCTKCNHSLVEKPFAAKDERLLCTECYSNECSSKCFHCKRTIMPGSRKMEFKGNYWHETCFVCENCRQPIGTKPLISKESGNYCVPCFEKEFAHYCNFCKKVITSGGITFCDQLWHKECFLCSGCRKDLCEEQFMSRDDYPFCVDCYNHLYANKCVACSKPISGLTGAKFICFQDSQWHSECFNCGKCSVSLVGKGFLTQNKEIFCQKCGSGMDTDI
# B3: Mothers against decapentaplegic homolog 3 (Homo sapiens), P84022 (parent)
# chain: MSSILPFTPPIVKRLLGWKKGEQNGQEEKWCEKAVKSLVKKLKKTGQLDELEKAITTQNVNTKCITIPRSLDGRLQVSHRKGLPHVIYCRLWRWPDLHSHHELRAMELCEFAFNMKKDEVCVNPYHYQRVETPVLPPVLVPRHTEIPAEFPPLDDYSHSIPENTNFPAGIEPQSNIPETPPPGYLSEDGETSDHQMNHSMDAGSPNLSPNPMSPAHNNLDLQPVTYCEPAFWCSISYYELNQRVGETFHASQPSMTVDGFTDPSNSERFCLGLLSNVNRNAAVELTRRHIGRGVRLYYIGGEVFAECLSDSAIFVQSPNCNQRYGWHPATVCKIPPGCNLKIFNNQEFAALLAQSVNQGFEAVYQLTRMCTIRMSFVKGWGAEYRRQTVTSTPCWIELHLNGPLQWLDKVLTQMGSPSIRCSSVS
# Variants of: B1
# Conditions: with rby1f_human RBMY1F
row,Variant,effect of a mutation on the interaction
1,MSLADELLADLEEAAEEEEGGSYGEEEEEPAIEDVQEETQLDLSGDSVKTIAKLWDSKMFAEIMMKIEEYISKQAKASEVMGPVEAAPEYRVIVDANNLTVEIENEVNIIHKFIRDKYSKRFPELESLVPNALDYIRTVKELGNSLDKCKNNENLQQILTNATIMVVSVTASTTQGQQLSEEELERLEEACDMALELNASKHRIYEYVESRMSFIAPNLSIIIGASTAAKIMGVAGGLTNLSKMPACNIMLLGAQRKTLSGFSSTSVLPHTGYIYHSDIVQSLPPDLRRKAARLVAAKCTLAARVDSFHESTEGKVGYELKDEIERKFDKWQEPPPVKQVKPLPAPLDGQRKKRGGRRYRKMKERLGLTEIRKQANRMSFGEIEEDAYQEDLGFSLGHLGKSGSGRVRQTQVNEATKARISKTLQRTLQKQSVVYGGKSTIRDRSSGTASSVAFTPLQGLEIVNPQAAEKKVAEANQKYFSSMAEFLKVKGEKSGLMST [L107V],with no effect

# Variants of: B2
# Conditions: with fhl5_human FHL5, Q5TD97
row,Variant,effect of a mutation on the interaction
1,MTLQCTKSAGPWKMVVWDEDGFQGRRHEFTAECPSVLELGFETVRSLKVLSGAWVGFEHAGFQGQQYIPERGEYPSWDAWGGNTAYPAERLTSFRPAACANHRDSRLTIFEQENFLGKKGELSDDYPSLQAMGWEGNEVGSFHVHSGAWVCSQFPGYRGFQYVLECDHHSGDYKHFREWGSHAPTFQVQSIRRIQQ [L69P],disrupting interaction strength
2,MTLQCTKSAGPWKMVVWDEDGFQGRRHEFTAECPSVLELGFETVRSLKVLSGAWVGFEHAGFQGQQYILERGEYPSWDAWGGNTAYPAERLTSSRPAACANHRDSRLTIFEQENFLGKKGELSDDYPSLQAMGWEGNEVGSFHVHSGAWVCSQFPGYRGFQYVLECDHHSGDYKHFREWGSHAPTFQVQSIRRIQQ [F94S],disrupting interaction strength
3,MTLQCTKSAGPWKMVVWDEDGFQGRRHEFTAECPSMLELGFETVRSLKVLSGAWVGFEHAGFQGQQYILERGEYPSWDAWGGNTAYPAERLTSFRPAACANHRDSRLTIFEQENFLGKKGELSDDYPSLQAMGWEGNEVGSFHVHSGAWVCSQFPGYRGFQYVLECDHHSGDYKHFREWGSHAPTFQVQSIRRIQQ [V36M],disrupting interaction strength

# Variants of: B3
# Conditions: with wwp1_human WWP1, Q9H0M0
row,Variant,effect of a mutation on the interaction
1,N197I,with no effect
2,I170V,with no effect

# Variants of: B3
# Conditions: with crx_human CRX
row,Variant,effect of a mutation on the interaction
1,N197I,with no effect
2,I170V,with no effect

# Variants of: B3
# Conditions: with wwp2_human WWP2, O00308
# Sequence of wwp2_human WWP2, O00308 (O00308 whole entry): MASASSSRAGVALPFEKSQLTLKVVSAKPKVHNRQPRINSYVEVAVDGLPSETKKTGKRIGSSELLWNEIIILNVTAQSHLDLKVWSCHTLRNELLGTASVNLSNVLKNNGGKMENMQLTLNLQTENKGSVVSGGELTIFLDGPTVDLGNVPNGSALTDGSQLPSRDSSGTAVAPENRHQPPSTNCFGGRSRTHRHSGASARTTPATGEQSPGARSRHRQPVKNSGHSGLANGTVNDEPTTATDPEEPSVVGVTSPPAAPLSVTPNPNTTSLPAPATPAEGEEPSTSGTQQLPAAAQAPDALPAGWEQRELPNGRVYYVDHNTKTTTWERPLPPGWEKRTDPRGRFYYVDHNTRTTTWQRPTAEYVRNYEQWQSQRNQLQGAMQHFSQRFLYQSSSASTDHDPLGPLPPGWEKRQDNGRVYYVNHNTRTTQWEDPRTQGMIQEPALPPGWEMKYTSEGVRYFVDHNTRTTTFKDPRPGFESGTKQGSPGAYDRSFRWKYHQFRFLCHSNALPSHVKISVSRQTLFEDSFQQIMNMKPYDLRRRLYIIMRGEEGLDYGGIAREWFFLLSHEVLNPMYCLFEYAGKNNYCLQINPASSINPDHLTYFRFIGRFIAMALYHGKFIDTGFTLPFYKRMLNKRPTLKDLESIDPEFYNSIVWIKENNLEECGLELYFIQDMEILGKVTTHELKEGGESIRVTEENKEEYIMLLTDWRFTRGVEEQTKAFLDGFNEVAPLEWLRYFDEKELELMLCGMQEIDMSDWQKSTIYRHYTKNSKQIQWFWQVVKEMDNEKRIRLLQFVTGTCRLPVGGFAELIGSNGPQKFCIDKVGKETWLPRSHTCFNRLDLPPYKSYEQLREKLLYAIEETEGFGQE
row,Variant,effect of a mutation on the interaction
1,N197I,with no effect
2,I170V,with no effect

# Variants of: B3
# Conditions: with smad4_human SMAD4, Q13485
# Sequence of smad4_human SMAD4, Q13485 (Q13485 whole entry): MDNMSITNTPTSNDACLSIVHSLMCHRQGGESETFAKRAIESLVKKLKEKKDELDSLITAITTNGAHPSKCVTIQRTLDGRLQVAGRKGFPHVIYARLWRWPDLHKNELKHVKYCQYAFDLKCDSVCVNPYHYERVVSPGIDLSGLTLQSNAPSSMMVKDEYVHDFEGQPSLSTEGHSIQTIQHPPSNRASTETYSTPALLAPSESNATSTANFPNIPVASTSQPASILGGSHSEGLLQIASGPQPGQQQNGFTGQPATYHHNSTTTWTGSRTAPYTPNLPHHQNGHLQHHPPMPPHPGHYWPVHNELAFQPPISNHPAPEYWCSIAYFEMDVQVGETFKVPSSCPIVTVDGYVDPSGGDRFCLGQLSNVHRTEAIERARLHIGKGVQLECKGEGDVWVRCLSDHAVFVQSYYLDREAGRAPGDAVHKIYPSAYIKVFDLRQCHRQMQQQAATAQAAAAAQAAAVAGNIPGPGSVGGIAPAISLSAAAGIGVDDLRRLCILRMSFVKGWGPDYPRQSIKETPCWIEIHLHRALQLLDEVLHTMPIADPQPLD
row,Variant,effect of a mutation on the interaction
1,N197I,with no effect
2,I170V,with no effect

# Variants of: B3
# Conditions: with meox2_human MEOX2, P50222
# Sequence of meox2_human MEOX2, P50222 (P50222 whole entry): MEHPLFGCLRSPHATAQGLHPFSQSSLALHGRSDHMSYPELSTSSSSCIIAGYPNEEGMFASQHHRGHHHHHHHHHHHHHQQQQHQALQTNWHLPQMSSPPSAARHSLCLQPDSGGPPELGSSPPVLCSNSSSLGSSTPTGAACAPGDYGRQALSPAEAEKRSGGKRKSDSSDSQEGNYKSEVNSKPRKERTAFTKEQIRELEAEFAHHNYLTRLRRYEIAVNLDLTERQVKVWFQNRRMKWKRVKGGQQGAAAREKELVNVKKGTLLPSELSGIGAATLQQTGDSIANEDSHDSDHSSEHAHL
row,Variant,effect of a mutation on the interaction
1,N197I,with no effect
2,I170V,with no effect

# Variants of: B3
# Conditions: with ccd33_human CCDC33, Q8N5R6
# Sequence of ccd33_human CCDC33, Q8N5R6 (Q8N5R6 whole entry): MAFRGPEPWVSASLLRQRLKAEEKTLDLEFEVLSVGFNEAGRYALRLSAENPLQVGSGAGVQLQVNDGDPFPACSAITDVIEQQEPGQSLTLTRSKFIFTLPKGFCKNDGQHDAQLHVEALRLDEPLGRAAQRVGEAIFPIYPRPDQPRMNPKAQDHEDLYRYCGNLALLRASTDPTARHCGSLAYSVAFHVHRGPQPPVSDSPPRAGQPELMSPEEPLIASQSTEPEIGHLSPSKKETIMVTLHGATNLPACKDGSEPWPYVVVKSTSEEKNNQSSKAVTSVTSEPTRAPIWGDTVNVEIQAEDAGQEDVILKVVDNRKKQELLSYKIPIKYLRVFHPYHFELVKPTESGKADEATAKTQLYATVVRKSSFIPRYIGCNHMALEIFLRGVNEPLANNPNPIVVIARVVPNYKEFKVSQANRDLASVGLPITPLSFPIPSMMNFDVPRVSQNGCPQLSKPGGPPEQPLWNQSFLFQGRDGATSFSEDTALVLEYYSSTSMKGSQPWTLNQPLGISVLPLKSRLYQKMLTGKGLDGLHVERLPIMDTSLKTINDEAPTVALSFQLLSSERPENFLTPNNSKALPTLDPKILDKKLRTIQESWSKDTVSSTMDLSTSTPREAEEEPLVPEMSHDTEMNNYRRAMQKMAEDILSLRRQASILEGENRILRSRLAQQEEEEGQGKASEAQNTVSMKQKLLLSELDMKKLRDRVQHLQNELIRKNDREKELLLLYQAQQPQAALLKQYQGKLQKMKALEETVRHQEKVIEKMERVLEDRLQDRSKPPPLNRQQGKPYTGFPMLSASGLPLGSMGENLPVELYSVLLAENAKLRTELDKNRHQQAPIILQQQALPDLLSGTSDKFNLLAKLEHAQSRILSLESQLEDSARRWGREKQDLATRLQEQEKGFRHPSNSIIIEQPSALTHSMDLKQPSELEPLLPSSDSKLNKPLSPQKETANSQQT
row,Variant,effect of a mutation on the interaction
1,N197I,with no effect
2,I170V,with no effect

# From IntAct's records for PubMed 25910212
